Columns and labels:
Conditions in all cases: […]) or PBS pH 8.0, 1 mM TCEP ([…]
[1] = tested on: T1, PaaR2 (Escherichia coli O157:H7 EDL933 (CP-933P cryptic prophage)), ORF:dc76e4f2; experiment: EMSA
T1 sequence: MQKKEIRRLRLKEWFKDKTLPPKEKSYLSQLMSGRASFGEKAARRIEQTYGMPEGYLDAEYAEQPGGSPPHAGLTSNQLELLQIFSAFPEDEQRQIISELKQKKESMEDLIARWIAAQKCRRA

[2] = tested on: T2, YdaS (Escherichia coli O157:H7 EDL933 (CP-933P cryptic prophage)), ORF:56fdd3d8; experiment: EMSA
T2 sequence: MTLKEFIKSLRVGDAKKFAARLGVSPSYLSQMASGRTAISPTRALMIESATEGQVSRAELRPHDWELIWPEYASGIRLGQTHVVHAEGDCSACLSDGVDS

[3] = tested on: T1, PaaR2 (Escherichia coli O157:H7 EDL933 (CP-933P cryptic prophage)), ORF:dc76e4f2; experiment: DNase I footprinting
[4] = tested on: T2, YdaS (Escherichia coli O157:H7 EDL933 (CP-933P cryptic prophage)), ORF:56fdd3d8; experiment: DNase I footprinting
[5] = tested on: PaaR2 (Escherichia coli O157:H7 EDL933 (CP-933P cryptic prophage)); experiment: EMSA
[6] = tested on: YdaS (Escherichia coli O157:H7 EDL933 (CP-933P cryptic prophage)); experiment: EMSA

Question: What does the source list for “GCTTTTGCGCAGAAATTTCGCGATATGGCAGGACAAGACGTAAAATTGACAGCAATTTTATTCATATAAAGAATGAATCGCAGTCAAGGTATTCATC (double strand) [random intergenic region (Neg)]”?
Answer: binding [1]: no binding; binding [2]: no binding

Question: Which binding [3] does the source give for “TCTTTAAACCACTCCTTGAGACGTAAACGGCGAATTTCTTTTTTTTGCATGTGGTAATTATCTTTAGTAATCACTAAACAAGCAAATACTTGACTTAATGGTTTATTAAACACTAAACTCGCAAAAAAACACTAAACCGAGGAAGGTATGACATTAAAAGAGTTTATTAAATCATTAAGGGTTGGTGAT (double strand) [footprint fragment, paaR2-ydaS promoter/operator region]” here?
Answer: binds

Question: What about the binding [4] of the same substance?
Answer: binds

Question: “ACCTTCCTCGGTTTAGTGTTTTTTTGCGAGTTTAGTGTTTAATAAACCATTAAGTCAAGTATTTGCTTGTTTAGTGATTACTAAAGATAATTACCAC (double strand)” was tested. Which binding [1] did it give?
Answer: > 1 µM

Question: What about the binding [2] of the same substance?
Answer: > 1 µM

Question: For “full-length promoter/operator region, paaR2-ydaS intergenic region (EMSA)”, which binding [5] is on record?
Answer: > 1 µM

Question: And the binding [6]?
Answer: > 1 µM

Source: PMC8630535
